From article PMC11931385, “Structural and functional analysis of cancer-associated missense variants in the retinoblastoma protein pocket domain” (The Journal of Biological Chemistry, 2025)
No end group written: not given here. TMR = tetramethyl rhodamine dye

T1: Rb^P R621C (human, UniProt P06400 380-788, R621C)
T1 construct: also called variant 41
T1 sequence (looked up): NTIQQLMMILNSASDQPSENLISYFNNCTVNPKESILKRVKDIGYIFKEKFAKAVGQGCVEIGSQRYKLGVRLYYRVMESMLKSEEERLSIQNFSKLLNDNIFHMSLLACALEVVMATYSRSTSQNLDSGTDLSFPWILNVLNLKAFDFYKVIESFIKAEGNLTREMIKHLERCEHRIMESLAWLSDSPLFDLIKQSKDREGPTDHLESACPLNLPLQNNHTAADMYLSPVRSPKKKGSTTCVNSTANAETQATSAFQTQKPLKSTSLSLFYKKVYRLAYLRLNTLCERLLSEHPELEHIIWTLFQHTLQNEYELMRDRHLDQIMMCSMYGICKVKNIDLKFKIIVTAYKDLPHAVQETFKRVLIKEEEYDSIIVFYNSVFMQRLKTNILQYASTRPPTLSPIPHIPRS

T2: Rb^P S474I (human, UniProt P06400 380-788, S474I)
T2 construct: also called variant 11
T2 sequence (looked up): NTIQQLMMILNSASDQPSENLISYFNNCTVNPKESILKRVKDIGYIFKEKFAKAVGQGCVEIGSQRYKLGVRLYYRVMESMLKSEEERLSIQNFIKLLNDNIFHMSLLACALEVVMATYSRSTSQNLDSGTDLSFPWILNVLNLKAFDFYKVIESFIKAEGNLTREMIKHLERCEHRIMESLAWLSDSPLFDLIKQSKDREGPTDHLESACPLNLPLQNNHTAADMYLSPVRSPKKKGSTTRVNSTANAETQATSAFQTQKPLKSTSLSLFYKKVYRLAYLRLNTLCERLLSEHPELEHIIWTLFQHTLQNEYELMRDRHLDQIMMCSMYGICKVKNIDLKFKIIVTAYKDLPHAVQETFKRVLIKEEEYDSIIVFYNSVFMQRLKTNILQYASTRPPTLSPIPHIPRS

T3: Rb^P T738I (human, UniProt P06400 380-788, T738I)
T3 construct: also called variant 67
T3 sequence (looked up): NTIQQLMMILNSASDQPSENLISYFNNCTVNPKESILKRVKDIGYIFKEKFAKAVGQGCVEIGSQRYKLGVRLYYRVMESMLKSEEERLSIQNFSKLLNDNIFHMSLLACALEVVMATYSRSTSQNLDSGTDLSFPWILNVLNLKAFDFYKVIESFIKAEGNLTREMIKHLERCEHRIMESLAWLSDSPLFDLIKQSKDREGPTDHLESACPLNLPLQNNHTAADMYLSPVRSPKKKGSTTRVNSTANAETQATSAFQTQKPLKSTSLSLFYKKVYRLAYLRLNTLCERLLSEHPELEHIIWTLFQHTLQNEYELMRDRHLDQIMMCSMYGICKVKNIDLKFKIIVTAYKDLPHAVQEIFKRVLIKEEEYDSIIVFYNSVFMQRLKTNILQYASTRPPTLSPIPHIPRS

T4: Rb^P D697E (human, UniProt P06400 380-788, D697E)
T4 construct: also called variant 62
T4 sequence (looked up): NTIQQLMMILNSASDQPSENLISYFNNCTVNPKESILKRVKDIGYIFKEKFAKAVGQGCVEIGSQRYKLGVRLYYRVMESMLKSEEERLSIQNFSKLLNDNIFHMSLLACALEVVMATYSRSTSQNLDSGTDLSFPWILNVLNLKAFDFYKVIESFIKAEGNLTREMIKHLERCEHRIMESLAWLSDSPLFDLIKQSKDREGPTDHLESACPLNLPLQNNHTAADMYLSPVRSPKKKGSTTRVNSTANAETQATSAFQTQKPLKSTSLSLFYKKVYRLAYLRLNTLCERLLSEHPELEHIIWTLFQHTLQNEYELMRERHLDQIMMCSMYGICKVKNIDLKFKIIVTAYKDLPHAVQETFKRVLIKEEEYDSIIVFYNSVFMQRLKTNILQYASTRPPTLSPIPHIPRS

T5: Rb^P R763T (human, UniProt P06400 380-788, R763T)
T5 construct: also called variant 75
T5 sequence (looked up): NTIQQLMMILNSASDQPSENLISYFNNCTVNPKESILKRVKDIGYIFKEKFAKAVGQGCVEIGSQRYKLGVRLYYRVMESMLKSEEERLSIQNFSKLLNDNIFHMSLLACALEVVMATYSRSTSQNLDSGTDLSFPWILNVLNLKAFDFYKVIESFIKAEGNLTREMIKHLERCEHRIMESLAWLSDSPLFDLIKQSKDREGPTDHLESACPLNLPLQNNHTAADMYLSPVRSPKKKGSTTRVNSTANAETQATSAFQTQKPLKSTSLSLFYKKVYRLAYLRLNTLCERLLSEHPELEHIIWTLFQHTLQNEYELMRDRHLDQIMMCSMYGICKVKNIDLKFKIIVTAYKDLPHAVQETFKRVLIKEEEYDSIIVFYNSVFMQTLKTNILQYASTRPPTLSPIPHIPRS


Key:
Assay in all cases: fluorescence polarisation; 37 °C, after the 25 °C reading ramped over 7 min to 37 °C and 2 min incubation; unlabeled Rb^P against 1.5 nM TMR-E2F1^TD or 7.5 nM TMR-E7^LxCxE; 25 mM Tris pH 8.0, 200 mM NaCl, 1 mM DTT, 0.1% Tween-20; apparent Kd
Settings in all cases: both partners purified
[1] = target: T1, Rb^P R621C
[2] = target: T2, Rb^P S474I
[3] = target: T3, Rb^P T738I
[4] = target: T4, Rb^P D697E
[5] = target: T5, Rb^P R763T

Binder | Kd [1] [nM] | Kd [2] [nM] | Kd [3] [nM] | Kd [4] [nM] | Kd [5] [nM]
{TMR}-GEGIRDLFDCDFGDLTPLD (also called E2F^TD; source: synthetic peptide, bought: GenScript) [TMR-E2F1^TD, peptide of the E2F1 transactivation domain] | 43 | 775 | 179 | 129 | 59
DLYCYEQLN (also: TMR label, position not given here, source: synthetic peptide, bought: GenScript) [TMR-E7^LxCxE, LxCxE peptide of the E7 oncoprotein from HPV] | 30 | 18 | 151 | 46 | 35
